Measurements published in article PMC9957003, “Functional Analyses of Rare Germline Missense BRCA1 Variants Located within and outside Protein Domains with Known Functions” (Genes, 2023).
Positions count from the first letter of the chain named.

B1: BRCA1 p.Arg610Thr (full-length, mCherry-tagged) (natural protein, human, UniProt P38398 1-1863, looked up)
chain: MDLSALRVEEVQNVINAMQKILECPICLELIKEPVSTKCDHIFCKFCMLKLLNQKKGPSQCPLCKNDITKRSLQESTRFSQLVEELLKIICAFQLDTGLEYANSYNFAKKENNSPEHLKDEVSIIQSMGYRNRAKRLLQSEPENPSLQETSLSVQLSNLGTVRTLRTKQRIQPQKTSVYIELGSDSSEDTVNKATYCSVGDQELLQITPQGTRDEISLDSAKKAACEFSETDVTNTEHHQPSNNDLNTTEKRAAERHPEKYQGSSVSNLHVEPCGTNTHASSLQHENSSLLLTKDRMNVEKAEFCNKSKQPGLARSQHNRWAGSKETCNDRRTPSTEKKVDLNADPLCERKEWNKQKLPCSENPRDTEDVPWITLNSSIQKVNEWFSRSDELLGSDDSHDGESESNAKVADVLDVLNEVDEYSGSSEKIDLLASDPHEALICKSERVHSKSVESNIEDKIFGKTYRKKASLPNLSHVTENLIIGAFVTEPQIIQERPLTNKLKRKRRPTSGLHPEDFIKKADLAVQKTPEMINQGTNQTEQNGQVMNITNSGHENKTKGDSIQNEKNPNPIESLEKESAFKTKAEPISSSISNMELELNIHNSKAPKKNTLRRKSSTRHIHALELVVSRNLSPPNCTELQIDSCSSSEEIKKKKYNQMPVRHSRNLQLMEGKEPATGAKKSNKPNEQTSKRHDSDTFPELKLTNAPGSFTKCSNTSELKEFVNPSLPREEKEEKLETVKVSNNAEDPKDLMLSGERVLQTERSVESSSISLVPGTDYGTQESISLLEVSTLGKAKTEPNKCVSQCAAFENPKGLIHGCSKDNRNDTEGFKYPLGHEVNHSRETSIEMEESELDAQYLQNTFKVSKRQSFAPFSNPGNAEEECATFSAHSGSLKKQSPKVTFECEQKEENQGKNESNIKPVQTVNITAGFPVVGQKDKPVDNAKCSIKGGSRFCLSSQFRGNETGLITPNKHGLLQNPYRIPPLFPIKSFVKTKCKKNLLEENFEEHSMSPEREMGNENIPSTVSTISRNNIRENVFKEASSSNINEVGSSTNEVGSSINEIGSSDENIQAELGRNRGPKLNAMLRLGVLQPEVYKQSLPGSNCKHPEIKKQEYEEVVQTVNTDFSPYLISDNLEQPMGSSHASQVCSETPDDLLDDGEIKEDTSFAENDIKESSAVFSKSVQKGELSRSPSPFTHTHLAQGYRRGAKKLESSEENLSSEDEELPCFQHLLFGKVNNIPSQSTRHSTVATECLSKNTEENLLSLKNSLNDCSNQVILAKASQEHHLSEETKCSASLFSSQCSELEDLTANTNTQDPFLIGSSKQMRHQSESQGVGLSDKELVSDDEERGTGLEENNQEEQSMDSNLGEAASGCESETSVSEDCSGLSSQSDILTTQQRDTMQHNLIKLQQEMAELEAVLEQHGSQPSNSYPSIISDSSALEDLRNPEQSTSEKAVLTSQKSSEYPISQNPEGLSADKFEVSADSSTSKNKEPGVERSSPSKCPSLDDRWYMHSCSGSLQNRNYPSQEELIKVVDVEEQQLEESGPHDLTETSYLPRQDLEGTPYLESGISLFSDDPESDPSEDRAPESARVGNIPSSTSALKVPQLKVAESAQSPAAAHTTDTAGYNAMEESVSREKPELTASTERVNKRMSMVVSGLTPEEFMLVYKFARKHHITLTNLITEETTHVVMKTDAEFVCERTLKYFLGIAGGKWVVSYFWVTQSIKERKMLNEHDFEVRGDVVNGRNHQGPKRARESQDRKIFRGLEICCYGPFTNMPTDQLEWMVQLCGASVVKELSSFTLGTGVHPIVVVQPDAWTEDNGFHAIGQMCEAPVVTREWVLDSVALYQCQELDTYLIPQIPHSHY
notes: BRCA1, human, full-length, rare germline missense variant introduced in the WT plasmid; Made by site-directed mutagenesis of the plasmid of m1; also called c.1829G > C; source: HEK293FT, transiently co-transfected, in lysate
B2: BRCA1 p.Leu1439Phe (full-length, mCherry-tagged) (natural protein, human, UniProt P38398 1-1863, looked up)
chain: B1 chain with T610R, L1439F
notes: BRCA1, human, full-length, rare germline missense variant introduced in the WT plasmid; Made by site-directed mutagenesis of the plasmid of m1; also called c.4315C > T; source: HEK293FT, transiently co-transfected, in lysate
B3: BRCA1 p.Gly933Asp (full-length, mCherry-tagged) (natural protein, human, UniProt P38398 1-1863, looked up)
chain: B1 chain with T610R, G933D
notes: BRCA1, human, full-length, rare germline missense variant introduced in the WT plasmid; Made by site-directed mutagenesis of the plasmid of m1; also called c.2798G > A; source: HEK293FT, transiently co-transfected, in lysate
B4: BRCA1 p.Arg612Gly (full-length, mCherry-tagged) (natural protein, human, UniProt P38398 1-1863, looked up)
chain: B1 chain with T610R, R612G
notes: BRCA1, human, full-length, rare germline missense variant introduced in the WT plasmid; Made by site-directed mutagenesis of the plasmid of m1; also called c.1834A > G; source: HEK293FT, transiently co-transfected, in lysate
B5: BRCA1 p.Thr1256Ile (full-length, mCherry-tagged) (natural protein, human, UniProt P38398 1-1863, looked up)
chain: B1 chain with T610R, T1256I
notes: BRCA1, human, full-length, rare germline missense variant introduced in the WT plasmid; Made by site-directed mutagenesis of the plasmid of m1; also called c.3767C > T; source: HEK293FT, transiently co-transfected, in lysate
B6: BRCA1 p.Ile925Val (full-length, mCherry-tagged) (natural protein, human, UniProt P38398 1-1863, looked up)
chain: B1 chain with T610R, I925V
notes: BRCA1, human, full-length, rare germline missense variant introduced in the WT plasmid; Made by site-directed mutagenesis of the plasmid of m1; also called c.2773A > G; source: HEK293FT, transiently co-transfected, in lysate
B7: BRCA1 p.Glu575Lys (full-length, mCherry-tagged) (natural protein, human, UniProt P38398 1-1863, looked up)
chain: B1 chain with E575K, T610R
notes: BRCA1, human, full-length, rare germline missense variant introduced in the WT plasmid; Made by site-directed mutagenesis of the plasmid of m1; also called c.1723G > A; source: HEK293FT, transiently co-transfected, in lysate
B8: BRCA1 p.Gly890Arg (full-length, mCherry-tagged) (natural protein, human, UniProt P38398 1-1863, looked up)
chain: B1 chain with T610R, G890R
notes: BRCA1, human, full-length, rare germline missense variant introduced in the WT plasmid; Made by site-directed mutagenesis of the plasmid of m1; also called c.2668G > A; source: HEK293FT, transiently co-transfected, in lysate
B9: BRCA1 p.Leu523Val (full-length, mCherry-tagged) (natural protein, human, UniProt P38398 1-1863, looked up)
chain: B1 chain with L523V, T610R
notes: BRCA1, human, full-length, rare germline missense variant introduced in the WT plasmid; Made by site-directed mutagenesis of the plasmid of m1; also called c.1567T > G; source: HEK293FT, transiently co-transfected, in lysate

Each binder was assayed against T1, BARD1-V5 WT (BRCA1-Associated RING Domain protein 1) (UniProt Q99728 1-777) (assay: co-IP; HEK293FT co-transfected with BRCA1 WT or variant and BARD1-V5; 2 mg lysate protein incubated 90 min at 4 °C with V5 antibody coupled to Dynabeads Protein G; non-denaturing elution; BRCA1 in the IP detected by anti-BRCA1 blot, normalised to the anti-V5 signal, % of WT). Conditions: partners not purified.
T1 construct: BARD1 (BRCA1-Associated RING Domain protein 1), wild type; also called pcDNA6.2-BARD1-V5; source: HEK293FT, transiently co-transfected, in lysate
T1 sequence (looked up): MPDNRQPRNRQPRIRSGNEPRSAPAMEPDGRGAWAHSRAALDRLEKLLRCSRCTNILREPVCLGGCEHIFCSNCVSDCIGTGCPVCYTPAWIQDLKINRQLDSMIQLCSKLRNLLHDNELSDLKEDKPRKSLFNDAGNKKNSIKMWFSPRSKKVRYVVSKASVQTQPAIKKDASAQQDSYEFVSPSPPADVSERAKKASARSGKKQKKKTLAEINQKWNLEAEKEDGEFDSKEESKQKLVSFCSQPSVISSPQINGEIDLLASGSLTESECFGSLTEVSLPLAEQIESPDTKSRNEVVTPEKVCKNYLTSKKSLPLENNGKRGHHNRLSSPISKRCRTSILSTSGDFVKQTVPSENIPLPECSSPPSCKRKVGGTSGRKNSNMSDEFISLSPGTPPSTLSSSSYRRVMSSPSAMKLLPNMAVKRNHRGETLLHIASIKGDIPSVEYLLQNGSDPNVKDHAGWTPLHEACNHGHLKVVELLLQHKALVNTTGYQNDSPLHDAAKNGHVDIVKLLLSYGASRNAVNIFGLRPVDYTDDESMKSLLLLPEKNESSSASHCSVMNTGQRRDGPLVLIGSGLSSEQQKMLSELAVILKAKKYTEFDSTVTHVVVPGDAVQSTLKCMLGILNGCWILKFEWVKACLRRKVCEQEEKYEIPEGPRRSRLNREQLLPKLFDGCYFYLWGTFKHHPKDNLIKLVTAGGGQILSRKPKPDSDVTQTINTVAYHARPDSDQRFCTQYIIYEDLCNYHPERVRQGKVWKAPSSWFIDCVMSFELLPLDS

Point of comparison: B8, “Co-IP BARD1 (% of WT)” value 77 % of WT. Against it:
- B1 — higher, 81 % of WT
- B2 — lower, 60 % of WT
- B3 — lower, 73 % of WT
- B4 — lower, 71 % of WT
- B5 — lower, 55 % of WT
- B6 — higher, 97 % of WT
- B7 — the same, 77 % of WT
- B9 — lower, 71 % of WT

What follows are binders tested against T2, Flag-PALB2 WT (Partner and Localiser of BRCA2) (UniProt Q86YC2 1-1186) (assay: co-IP; HEK293FT co-transfected with BRCA1 WT or variant and Flag-PALB2; 2 mg lysate protein incubated 90 min at 4 °C with Flag antibody coupled to Dynabeads Protein G; non-denaturing elution; BRCA1 in the IP detected by anti-BRCA1 blot, normalised to the anti-Flag signal, % of WT). Conditions: partners not purified.
T2 construct: PALB2 (Partner and Localiser of BRCA2), wild type; printed both as Flag-PALB2 and as PALB2-Flag; also called PALB2-Flag; pDEST-FRT/T0-Flag-PALB2; source: HEK293FT, transiently co-transfected, in lysate
T2 sequence (looked up): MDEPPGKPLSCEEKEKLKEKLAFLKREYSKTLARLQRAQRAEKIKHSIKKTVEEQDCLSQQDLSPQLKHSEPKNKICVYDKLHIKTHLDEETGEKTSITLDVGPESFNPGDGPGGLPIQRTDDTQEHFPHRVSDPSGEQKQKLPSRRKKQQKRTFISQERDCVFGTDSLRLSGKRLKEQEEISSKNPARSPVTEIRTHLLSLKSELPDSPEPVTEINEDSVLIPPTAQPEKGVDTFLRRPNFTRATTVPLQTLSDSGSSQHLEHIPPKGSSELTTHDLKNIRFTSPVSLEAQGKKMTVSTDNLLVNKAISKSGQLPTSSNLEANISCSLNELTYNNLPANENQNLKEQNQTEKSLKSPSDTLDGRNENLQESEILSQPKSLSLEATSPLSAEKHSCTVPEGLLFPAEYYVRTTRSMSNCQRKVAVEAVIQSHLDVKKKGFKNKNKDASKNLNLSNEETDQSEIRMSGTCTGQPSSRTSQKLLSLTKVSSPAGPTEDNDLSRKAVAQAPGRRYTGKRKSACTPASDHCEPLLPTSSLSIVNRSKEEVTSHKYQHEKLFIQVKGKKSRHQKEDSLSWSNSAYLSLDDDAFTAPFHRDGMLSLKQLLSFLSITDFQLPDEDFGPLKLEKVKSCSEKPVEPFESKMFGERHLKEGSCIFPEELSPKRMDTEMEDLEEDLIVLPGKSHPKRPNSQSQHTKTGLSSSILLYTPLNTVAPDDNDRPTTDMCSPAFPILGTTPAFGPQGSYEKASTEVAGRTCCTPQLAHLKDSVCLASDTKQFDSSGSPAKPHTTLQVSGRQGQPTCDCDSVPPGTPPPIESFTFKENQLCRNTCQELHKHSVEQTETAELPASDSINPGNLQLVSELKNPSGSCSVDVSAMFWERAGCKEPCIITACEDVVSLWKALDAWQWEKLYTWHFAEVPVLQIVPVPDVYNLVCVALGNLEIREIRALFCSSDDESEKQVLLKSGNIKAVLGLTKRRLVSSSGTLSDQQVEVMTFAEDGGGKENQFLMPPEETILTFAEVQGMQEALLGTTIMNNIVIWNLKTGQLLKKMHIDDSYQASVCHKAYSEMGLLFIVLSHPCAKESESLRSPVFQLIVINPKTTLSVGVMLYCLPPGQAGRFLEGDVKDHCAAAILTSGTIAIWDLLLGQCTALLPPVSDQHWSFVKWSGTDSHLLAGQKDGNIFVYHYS

Point of comparison: B3, “Co-IP PALB2 (% of WT)” value 115 % of WT. Against it:
- B1 — lower, 56 % of WT
- B2 — lower, 86 % of WT
- B4 — lower, 59 % of WT
- B5 — lower, 79 % of WT
- B6 — lower, 88 % of WT
- B7 — lower, 66 % of WT
- B8 — lower, 89 % of WT
- B9 — lower, 73 % of WT
